Source: the supplement of paper PMC7877785
± gives the uncertainty stated by the source.

Test: self-splicing fitness, log relative to wild type (ln ratio); higher = more splicing; Tetrahymena group I intron in knt gene, E. coli kanamycin selection, DiMSum; sequences stand for … in CUCUCU…GGAGGGAAAAGUUAUCAGGCAUGCACCUGGUAGCUAGUCUUUAAACCAAUAGAUUGCAUCGGUUUAAAAGGCAAGACCGUCAAAUUGCGGGAAAGGGGUCAACAGCCGUUCAGUACCAAGUCUCAGGGGAAACUUUGAGAUGGCCUUGCAAAGGGUAUGGUAAUAAGCUGACGGACAUGGUCCUAACCACGCAGCCAAGUCCUAAGUCAACAGAUCUUCUGUUGAUAUGGAUGCAGUUCACAGACUAAAUGUCGGUCGGGGAAGAUGUAUUCUUCUCAUAAGAUAUAGUCGGACCUCUCCUUAAUGGGAGCUAGCGGAUGAAGUGAUGCAACACUGGAGCCGCUGGGAACUAAUUUGUAUGCGAAAGUAUAUUGAUUAGUUUUGGAGUACUCGUGGUCG
Outline: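 Six replicate transformations of E. coli BL21(DE3) with a pET-22b(+) library were grown overnight at 37°C or 30°C. The library randomised all eight P1ex-region intron nucleotides, the intron lying in the knt kanamycin-resistance gene, and plates were LB agar with or without 25 μg/mL kanamycin plus 100 μg/mL carbenicillin, 50 μM IPTG and 0.2% rhamnose. Pooled colonies were amplicon-sequenced on an Illumina HiSeq 2500, and fitness is the DiMSum error-weighted combination of wild-type-normalised replicate fold changes, kanamycin versus none.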

CCUGAGCAAUAUUACGGCCC
self-splicing fitness (ln) (30 °C): -2.54 ± 0.32

CCUGAGCAAUAUUACGGUAA
self-splicing fitness (ln) (30 °C): -3.76 ± 0.37 | self-splicing fitness (ln) (37 °C): -3.55 ± 0.25

CCUGAGCAAUAUUACGUAAC
self-splicing fitness (ln) (37 °C): -2.3 ± 0.35

CCUGAGCAAUAUUACGUACC
self-splicing fitness (ln) (30 °C): -0.796 ± 0.25 | self-splicing fitness (ln) (37 °C): -2.27 ± 0.37

CCUGAGCAAUAUUACGUCCU
self-splicing fitness (ln) (30 °C): -4.5 ± 0.39

CCUGAGCAAUAUUACGUGCU
self-splicing fitness (ln) (30 °C): -3.25 ± 0.19 | self-splicing fitness (ln) (37 °C): -2.24 ± 0.2

CCUGAGCAAUAUUACGUUAC
self-splicing fitness (ln) (30 °C): -3.52 ± 0.26 | self-splicing fitness (ln) (37 °C): -3.09 ± 0.36

CCUGAGCAAUAUUACGUUGC
self-splicing fitness (ln) (30 °C): -2.07 ± 0.31 | self-splicing fitness (ln) (37 °C): -2.27 ± 0.43

CCUGAGCAAUAUUACGUUGG
self-splicing fitness (ln) (30 °C): -4.56 ± 0.29 | self-splicing fitness (ln) (37 °C): -2.16 ± 0.16

CCUUAGCAAUAUUACGAAGA
self-splicing fitness (ln) (30 °C): -2.58 ± 0.27 | self-splicing fitness (ln) (37 °C): -3.3 ± 0.26

CCUUAGCAAUAUUACGAAGG
self-splicing fitness (ln) (30 °C): -3.53 ± 0.32

CCUUAGCAAUAUUACGAGCA
self-splicing fitness (ln) (30 °C): -2.64 ± 0.22 | self-splicing fitness (ln) (37 °C): -3.17 ± 0.33

CCUUAGCAAUAUUACGAGCG
self-splicing fitness (ln) (30 °C): -1.02 ± 0.077 | self-splicing fitness (ln) (37 °C): -0.792 ± 0.095

CCUUAGCAAUAUUACGAUCC
self-splicing fitness (ln) (30 °C): -2.32 ± 0.4 | self-splicing fitness (ln) (37 °C): -2.74 ± 0.49

CCUUAGCAAUAUUACGAUCG
self-splicing fitness (ln) (30 °C): -0.392 ± 0.07 | self-splicing fitness (ln) (37 °C): -0.134 ± 0.1

CCUUAGCAAUAUUACGCAUA
self-splicing fitness (ln) (30 °C): -3.22 ± 0.46 | self-splicing fitness (ln) (37 °C): -2.24 ± 0.37

CCUUAGCAAUAUUACGCCCA
self-splicing fitness (ln) (30 °C): -1.96 ± 0.34

CCUUAGCAAUAUUACGCGGU
self-splicing fitness (ln) (30 °C): -3.78 ± 0.36

CCUUAGCAAUAUUACGCUAG
self-splicing fitness (ln) (30 °C): -3.32 ± 0.29 | self-splicing fitness (ln) (37 °C): -2.04 ± 0.38

CCUUAGCAAUAUUACGCUGG
self-splicing fitness (ln) (30 °C): -1.57 ± 0.18 | self-splicing fitness (ln) (37 °C): -2.43 ± 0.3

CCUUAGCAAUAUUACGGAGC
self-splicing fitness (ln) (30 °C): -3.54 ± 0.34 | self-splicing fitness (ln) (37 °C): -2.4 ± 0.25

CCUUAGCAAUAUUACGGCGG
self-splicing fitness (ln) (30 °C): -2.92 ± 0.17 | self-splicing fitness (ln) (37 °C): -2.05 ± 0.21

CCUUAGCAAUAUUACGGCUC
self-splicing fitness (ln) (30 °C): -3.72 ± 0.21 | self-splicing fitness (ln) (37 °C): -3.45 ± 0.39

CCUUAGCAAUAUUACGGUAG
self-splicing fitness (ln) (30 °C): -4.09 ± 0.28 | self-splicing fitness (ln) (37 °C): -2.1 ± 0.23

CCUUAGCAAUAUUACGGUGC
self-splicing fitness (ln) (30 °C): -3.75 ± 0.19 | self-splicing fitness (ln) (37 °C): -3.01 ± 0.25

CCUUAGCAAUAUUACGGUUG
self-splicing fitness (ln) (30 °C): -2.38 ± 0.1 | self-splicing fitness (ln) (37 °C): -1.48 ± 0.098

CCUUAGCAAUAUUACGUCCC
self-splicing fitness (ln) (30 °C): -1.81 ± 0.5

CCUUAGCAAUAUUACGUCUA
self-splicing fitness (ln) (37 °C): -2.65 ± 0.23

CCUUAGCAAUAUUACGUCUU
self-splicing fitness (ln) (30 °C): -3.66 ± 0.16 | self-splicing fitness (ln) (37 °C): -2.61 ± 0.17

CCUUAGCAAUAUUACGUGAA
self-splicing fitness (ln) (30 °C): -4.2 ± 0.24 | self-splicing fitness (ln) (37 °C): -3.37 ± 0.28

CCUUAGCAAUAUUACGUUAA
self-splicing fitness (ln) (30 °C): -3.13 ± 0.27 | self-splicing fitness (ln) (37 °C): -2.71 ± 0.31

CCUUAGCAAUAUUACGUUCG
self-splicing fitness (ln) (30 °C): -3.37 ± 0.29 | self-splicing fitness (ln) (37 °C): -0.857 ± 0.18

CCUUAGCAAUAUUACGUUCU
self-splicing fitness (ln) (30 °C): -4.18 ± 0.46 | self-splicing fitness (ln) (37 °C): -1.5 ± 0.34

CGAAAGCAAUAUUACGACCC
self-splicing fitness (ln) (30 °C): -1.42 ± 0.2 | self-splicing fitness (ln) (37 °C): -0.478 ± 0.23

CGAAAGCAAUAUUACGACCG
self-splicing fitness (ln) (30 °C): -0.423 ± 0.12 | self-splicing fitness (ln) (37 °C): -0.183 ± 0.15

CGAAAGCAAUAUUACGACGC
self-splicing fitness (ln) (30 °C): -1.81 ± 0.13 | self-splicing fitness (ln) (37 °C): 0.0494 ± 0.18

CGAAAGCAAUAUUACGAUGG
self-splicing fitness (ln) (30 °C): -0.519 ± 0.07 | self-splicing fitness (ln) (37 °C): 0.406 ± 0.1

CGAAAGCAAUAUUACGAUGU
self-splicing fitness (ln) (30 °C): -1.52 ± 0.074 | self-splicing fitness (ln) (37 °C): -1.15 ± 0.13

CGAAAGCAAUAUUACGAUUG
self-splicing fitness (ln) (30 °C): -0.934 ± 0.074 | self-splicing fitness (ln) (37 °C): -0.262 ± 0.1

CGAAAGCAAUAUUACGCCUA
self-splicing fitness (ln) (30 °C): -2.47 ± 0.24 | self-splicing fitness (ln) (37 °C): -0.736 ± 0.14

CGAAAGCAAUAUUACGCGCA
self-splicing fitness (ln) (30 °C): -0.957 ± 0.12 | self-splicing fitness (ln) (37 °C): -0.435 ± 0.13

CGAAAGCAAUAUUACGCGGA
self-splicing fitness (ln) (30 °C): -3.29 ± 0.26 | self-splicing fitness (ln) (37 °C): -1.83 ± 0.17

CGAAAGCAAUAUUACGGAUC
self-splicing fitness (ln) (30 °C): -2.95 ± 0.16 | self-splicing fitness (ln) (37 °C): -2.02 ± 0.15

CGAAAGCAAUAUUACGGCCA
self-splicing fitness (ln) (30 °C): -1.29 ± 0.14 | self-splicing fitness (ln) (37 °C): -1.23 ± 0.099

CGAAAGCAAUAUUACGGCCU
self-splicing fitness (ln) (30 °C): -1.32 ± 0.068 | self-splicing fitness (ln) (37 °C): -0.274 ± 0.082

CGAAAGCAAUAUUACGGGAC
self-splicing fitness (ln) (37 °C): -2.59 ± 0.32

CGAAAGCAAUAUUACGUAAU
self-splicing fitness (ln) (30 °C): -4.18 ± 0.18 | self-splicing fitness (ln) (37 °C): -2.3 ± 0.12

CGAAAGCAAUAUUACGUCAA
self-splicing fitness (ln) (30 °C): -3.45 ± 0.34 | self-splicing fitness (ln) (37 °C): -2.11 ± 0.25

CGACAGCAAUAUUACGAACG
self-splicing fitness (ln) (30 °C): -0.656 ± 0.11 | self-splicing fitness (ln) (37 °C): -0.117 ± 0.16

CGACAGCAAUAUUACGAUUC
self-splicing fitness (ln) (30 °C): -3.6 ± 0.14 | self-splicing fitness (ln) (37 °C): -0.756 ± 0.08

CGACAGCAAUAUUACGCCGC
self-splicing fitness (ln) (37 °C): -1.74 ± 0.36
